Measurements published in PMC8699515.

Biological target: T1, C-reactive protein (CRP) from human pleural fluid (human) (UniProt P02741)
T1 sequence: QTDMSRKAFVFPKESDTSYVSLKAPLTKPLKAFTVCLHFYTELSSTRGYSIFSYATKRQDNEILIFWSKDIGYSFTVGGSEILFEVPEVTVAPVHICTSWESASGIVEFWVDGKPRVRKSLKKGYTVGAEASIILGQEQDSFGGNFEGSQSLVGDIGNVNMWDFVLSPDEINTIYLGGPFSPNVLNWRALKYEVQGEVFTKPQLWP
Test: ELISA; phage screening ELISA: CRP 0.25 ug/well coated overnight at 4 C on MaxiSorp, saturated with 3% BSA-PBS; phages in culture supernatant (100 uL, not normalised) 2 h at room temperature; anti-M13 HRP, TMB, absorbance at 450 nm; ratio of the CRP signal to the BSA control, triplicates

B1: anti-CRP nanobody H7 displayed on phage (VHH)
VHH: EVQLQASGGGLVQAGGSLRLSCAASGRTFSSYATGWYRQAPGKERELVAAISSGGSTYYADSVKGRFTISRDNAKNTVYLQMNSLKAEDTAVYYCAGGRRVGVLIGNEYDYWGQGTLVTVSS
Screening ELISA (CRP/BSA Signal): 7.1
